Experimental data taken from publication PMC5563082 (2017).

Legend:
Experiment in all cases: SPR
[1] = target: T1, human NL1(+A1–B)_(ECTO), immobilised for SPR (human, biotin on the Avitag (in vivo biotinylation by BirA))
T1 chain: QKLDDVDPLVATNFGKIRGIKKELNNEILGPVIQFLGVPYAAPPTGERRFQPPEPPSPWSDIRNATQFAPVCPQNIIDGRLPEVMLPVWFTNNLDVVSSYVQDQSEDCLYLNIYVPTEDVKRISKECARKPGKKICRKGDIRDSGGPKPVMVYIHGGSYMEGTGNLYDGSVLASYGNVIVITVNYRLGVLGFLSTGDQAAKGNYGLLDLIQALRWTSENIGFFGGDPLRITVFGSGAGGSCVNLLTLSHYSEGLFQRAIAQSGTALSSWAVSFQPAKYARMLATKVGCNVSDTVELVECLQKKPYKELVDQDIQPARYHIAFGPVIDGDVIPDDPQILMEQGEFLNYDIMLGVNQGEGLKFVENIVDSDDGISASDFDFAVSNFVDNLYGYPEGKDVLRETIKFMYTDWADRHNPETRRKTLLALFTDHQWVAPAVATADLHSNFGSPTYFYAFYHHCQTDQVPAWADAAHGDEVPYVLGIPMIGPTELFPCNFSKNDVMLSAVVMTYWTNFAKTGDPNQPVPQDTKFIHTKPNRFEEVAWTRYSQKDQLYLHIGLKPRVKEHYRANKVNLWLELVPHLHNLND

[2] = target: T2, human NL1(+A2–B)_(ECTO), immobilised for SPR (human, biotin on the Avitag (in vivo biotinylation by BirA))
T2 chain: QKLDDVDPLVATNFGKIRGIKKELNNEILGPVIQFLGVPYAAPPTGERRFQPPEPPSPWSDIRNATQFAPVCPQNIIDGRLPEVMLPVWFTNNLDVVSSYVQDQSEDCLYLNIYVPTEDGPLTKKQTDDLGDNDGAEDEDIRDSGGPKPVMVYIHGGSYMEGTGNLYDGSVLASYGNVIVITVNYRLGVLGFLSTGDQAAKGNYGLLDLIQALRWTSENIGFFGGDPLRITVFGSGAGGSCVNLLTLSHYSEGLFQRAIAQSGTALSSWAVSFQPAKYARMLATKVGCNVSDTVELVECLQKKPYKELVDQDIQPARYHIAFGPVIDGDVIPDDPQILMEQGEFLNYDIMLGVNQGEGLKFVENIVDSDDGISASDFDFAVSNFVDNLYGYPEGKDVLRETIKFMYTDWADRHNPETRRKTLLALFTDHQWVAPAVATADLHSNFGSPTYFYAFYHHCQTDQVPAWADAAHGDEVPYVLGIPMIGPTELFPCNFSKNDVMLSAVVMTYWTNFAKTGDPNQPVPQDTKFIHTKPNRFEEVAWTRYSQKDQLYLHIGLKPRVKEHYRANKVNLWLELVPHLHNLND

[3] = target: T3, human NL1(–A+B Asn300Gln)_(ECTO), immobilised for SPR (human, biotin on the Avitag (in vivo biotinylation by BirA))
T3 chain: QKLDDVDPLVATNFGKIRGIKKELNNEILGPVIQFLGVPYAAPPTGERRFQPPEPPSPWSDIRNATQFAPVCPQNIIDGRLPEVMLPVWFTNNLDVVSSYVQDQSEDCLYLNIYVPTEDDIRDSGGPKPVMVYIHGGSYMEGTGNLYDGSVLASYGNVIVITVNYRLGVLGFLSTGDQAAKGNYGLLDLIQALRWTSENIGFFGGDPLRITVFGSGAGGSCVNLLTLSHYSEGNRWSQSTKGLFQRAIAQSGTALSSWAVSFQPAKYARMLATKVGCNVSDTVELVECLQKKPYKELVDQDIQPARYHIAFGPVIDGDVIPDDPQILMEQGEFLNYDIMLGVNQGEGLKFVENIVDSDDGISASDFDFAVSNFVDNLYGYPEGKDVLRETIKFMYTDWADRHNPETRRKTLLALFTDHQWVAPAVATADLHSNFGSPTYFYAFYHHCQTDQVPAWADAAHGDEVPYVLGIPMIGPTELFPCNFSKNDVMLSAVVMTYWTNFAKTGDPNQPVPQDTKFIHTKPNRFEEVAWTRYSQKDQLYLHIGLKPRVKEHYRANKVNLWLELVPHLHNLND

[4] = target: T4, human NL1(–A+B)_(ECTO), immobilised for SPR (human, biotin on the Avitag (in vivo biotinylation by BirA); N-linked glycan at Asn300)
T4 chain: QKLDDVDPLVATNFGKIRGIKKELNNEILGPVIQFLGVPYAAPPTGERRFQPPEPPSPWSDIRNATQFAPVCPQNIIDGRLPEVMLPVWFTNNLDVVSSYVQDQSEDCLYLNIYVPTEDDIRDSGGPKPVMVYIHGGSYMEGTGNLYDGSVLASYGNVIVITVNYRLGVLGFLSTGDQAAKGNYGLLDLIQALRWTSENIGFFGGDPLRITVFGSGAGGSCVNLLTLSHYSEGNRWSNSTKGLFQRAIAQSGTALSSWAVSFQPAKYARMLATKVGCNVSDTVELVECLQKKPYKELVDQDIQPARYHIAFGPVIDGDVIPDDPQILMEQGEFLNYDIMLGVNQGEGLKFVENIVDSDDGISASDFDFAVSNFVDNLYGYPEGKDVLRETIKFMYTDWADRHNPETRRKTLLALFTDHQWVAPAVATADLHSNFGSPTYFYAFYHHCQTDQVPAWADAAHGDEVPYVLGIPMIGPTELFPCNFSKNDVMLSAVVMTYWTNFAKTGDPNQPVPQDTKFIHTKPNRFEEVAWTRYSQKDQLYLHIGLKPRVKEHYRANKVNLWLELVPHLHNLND

B1: human MDGA2 extracellular domain (MDGA2_(ECTO); Gln21-Lys927) (domain or fragment)
chain: QGVYAPPTVRIVHSGLACNIEEERYSERVYTIREGETLELTCLVTGHPRPQIRWTKTAGSASDRFQDSSVFNETLRITNIQRHQGGRYYCKAENGLGSPAIKSIRVDVYYLDDPVVTVHQSIGEAKEQFYYERTVFLRCVANSNPPVRYSWRRGQEVLLQGSDKGVEIYEPFFTQGETKILKLKNLRPQDYANYSCIASVRNVCNIPDKMVSFRLSNKTASPSIKLLVDDPIVVNPGEAITLVCVTTGGEPAPSLTWVRSFGTLPEKTVLNGGTLTIPAITSDDAGTYSCIANNNVGNPAKKSTNIIVRALKKGRFWITPDPYHKDDNIQIGREVKISCQVEAVPSEELTFSWFKNGRPLRSSERMVITQTDPDVSPGTTNLDIIDLKFTDFGTYTCVASLKGGGISDISIDVNISSSTVPPNLTVPQEKSPLVTREGDTIELQCQVTGKPKPIILWSRADKEVAMPDGSMQMESYDGTLRIVNVSREMSGMYRCQTSQYNGFNVKPREALVQLIVQYPPAVEPAFLEIRQGQDRSVTMSCRVLRAYPIRVLTYEWRLGNKLLRTGQFDSQEYTEYAVKSLSNENYGVYNCSIINEAGAGRCSFLVTGKAYAPEFYYDTYNPVWQNRHRVYSYSLQWTQMNPDAVDRIVAYRLGIRQAGQQRWWEQEIKINGNIQKGELITYNLTELIKPEAYEVRLTPLTKFGEGDSTIRVIKYSAPVNPHLREFHCGFEDGNICLFTQDDTDNFDWTKQSTATRNTKYTPNTGPNADRSGSKEGFYMYIETSRPRLEGEKARLLSPVFSIAPKNPYGPTNTAYCFSFFYHMYGQHIGVLNVYLRLKGQTTIENPLWSSSGNKGQRWNEAHVNIYPITSFQLIFEGIRGPGIEGDIAIDDVSIAEGECAKQDLATK
Kd [1]: 1200 nM
Kd [2]: 1460 nM
Kd [3]: 4030 nM
Kd [4]: 9630 nM

B2: human β-neurexin-1 LNS6 domain with SS4 (β-NRX1_(LNS6)(+4)) (domain or fragment)
chain: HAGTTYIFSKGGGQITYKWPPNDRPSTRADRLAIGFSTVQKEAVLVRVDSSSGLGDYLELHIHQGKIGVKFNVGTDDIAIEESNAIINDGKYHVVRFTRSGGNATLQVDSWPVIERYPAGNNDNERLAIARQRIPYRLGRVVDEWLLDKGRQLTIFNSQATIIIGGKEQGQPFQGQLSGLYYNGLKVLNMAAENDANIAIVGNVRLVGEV
Kd [1]: 2820 nM
Kd [2]: 2750 nM
Kd [3]: 4400 nM
Kd [4]: 4760 nM

B3: human β-neurexin-1 LNS6 domain lacking SS4 (β-NRX1_(LNS6)(–4); His85-Val265) (domain or fragment)
chain: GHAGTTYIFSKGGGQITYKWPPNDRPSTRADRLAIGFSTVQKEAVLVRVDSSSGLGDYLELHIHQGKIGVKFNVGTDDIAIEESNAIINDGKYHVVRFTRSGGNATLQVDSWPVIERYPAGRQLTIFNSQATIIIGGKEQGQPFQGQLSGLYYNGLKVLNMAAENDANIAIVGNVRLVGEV
Kd [1]: 766 nM
Kd [2]: 795 nM
Kd [3]: 1090 nM
Kd [4]: 1160 nM

B4: human MDGA1 extracellular domain (MDGA1_(ECTO); Gln19-Lys925) (domain or fragment)
chain: QGVYAPAQAQIVHAGQACVVKEDNISERVYTIREGDTLMLQCLVTGHPRPQVRWTKTAGSASDKFQETSVFNETLRIERIARTQGGRYYCKAENGVGVPAIKSIRVDVQYLDEPMLTVHQTVSDVRGNFYQEKTVFLRCTVNSNPPARFIWKRGSDTLSHSQDNGVDIYEPLYTQGETKVLKLKNLRPQDYASYTCQVSVRNVCGIPDKAITFRLTNTTAPPALKLSVNETLVVNPGENVTVQCLLTGGDPLPQLQWSHGPGPLPLGALAQGGTLSIPSVQARDSGYYNCTATNNVGNPAKKTVNLLVRSMKNATFQITPDVIKESENIQLGQDLKLSCHVDAVPQEKVTYQWFKNGKPARMSKRLLVTRNDPELPAVTSSLELIDLHFSDYGTYLCMASFPGAPVPDLSVEVNISSETVPPTISVPKGRAVVTVREGSPAELQCEVRGKPRPPVLWSRVDKEAALLPSGLPLEETPDGKLRLERVSRDMSGTYRCQTARYNGFNVRPREAQVQLNVQFPPEVEPSSQDVRQALGRPVLLRCSLLRGSPQRIASAVWRFKGQLLPPPPVVPAAAEAPDHAELRLDAVTRDSSGSYECSVSNDVGSAACLFQVSAKAYSPEFYFDTPNPTRSHKLSKNYSYVLQWTQREPDAVDPVLNYRLSIRQLNQHNAVVKAIPVRRVEKGQLLEYILTDLRVPHSYEVRLTPYTTFGAGDMASRIIHYTEPINSPNLSDNTCHFEDEKICGYTQDLTDNFDWTRQNALTQNPKRSPNTGPPTDISGTPEGYYMFIETSRPRELGDRARLVSPLYNASAKFYCVSFFYHMYGKHIGSLNLLVRSRNKGALDTHAWSLSGNKGNVWQQAHVPISPSGPFQIIFEGVRGPGYLGDIAIDDVTLKKGECPRKQTDPNK
Kd [1]: 2080 nM
Kd [2]: 3210 nM
Kd [3]: 7220 nM
Kd [4]: 13200 nM
